Experimental data reported in paper doi:10.1101/2020.05.26.100743 (bioRxiv, 2020).

Assays:
Assay in all cases: SPR
[1] = biological target: VH1 C110S mutant (His-MBP-VH1 fusion) (vaccinia virus Copenhagen strain, UniProt P20495 1-171, C110S)
[2] = biological target: VH1 K20A mutant (His-MBP-VH1 fusion) (vaccinia virus Copenhagen strain, UniProt P20495 1-171, K20A)
[3] = biological target: VH1 K22A mutant (His-MBP-VH1 fusion) (vaccinia virus Copenhagen strain, UniProt P20495 1-171, K22A)
[4] = biological target: VH1 M60A mutant (His-MBP-VH1 fusion) (vaccinia virus Copenhagen strain, UniProt P20495 1-171, M60A)
[5] = biological target: VH1 T25A mutant (His-MBP-VH1 fusion) (vaccinia virus Copenhagen strain, UniProt P20495 1-171, T25A)
[6] = biological target: VH1 T59A mutant (His-MBP-VH1 fusion) (vaccinia virus Copenhagen strain, UniProt P20495 1-171, T59A)

Measured: binding result

VDADEYLIPQQ [EGFR pTyr peptide 986-VDADEpYLIPQQ-998 (11-mer)]
binds: all assays above
